Test results published in patent US20190085323A1 (published 2019).

Experiments:
[1] = target: HER2 on the surface of N87 gastric cancer cells (human) (UniProt P04626); assay: cell-based or functional assay
[2] = target: HER2 on the surface of N87 gastric cancer cells (human) (UniProt P04626); assay: flow cytometry on N87 cells, 0.5 nM scFv detected with AL1-RFP

B1: 2835-28 source scFv (scFv, V domains shown, not shown: large carriers)
VH: EVQLVESGGGLVQPGGSLRLSCKASGYTFTDGSMHWVRQAPGKGLEWVAYINPYFGDTYYADSVKGRFTISADTSKNTAYLQMNSLRAEDTAVYYCARGWIDYWGQGTLVTVSS
VL: DIQMTQSPSSLSASVGDRVTITCKSNQNLLLSNGRTFLYWYQQKPGKAPKLLIYGTSYLYSGVPSRFSGSGSGTDFTLTISSLQPEDFATYYCFQANHLPWTFGQGTKVEIKR
modifications: VL-linker-VH scFv; linker and E-tag not given
- % cell viability (AL1) [1]: 52.8%
- % cell viability (AL2) [1]: 29.9%
- MFI [2]: 495
